Values joined by “and” are separate entries in the source; they are usually repeats but may differ in a detail not shown here. Identical values can stand only once.
Assays:
[1] = biological target: the molecule itself; experiment: SEC; […] (pH 7.8), 150 mM NaCl, 0.5 mL/min; […]
[2] = biological target: the molecule itself; experiment: […] (pH 7.8), room temperature; 1 mg/mL to 13.2 mg/mL (100 μM to 1.3 mM); […]

B1: Mu8.1 (SLC_Mu8.1), macro-conotoxin from Conus mucronatus (natural protein)
chain: GENSDNLTHCRLFEFRLCLLECMSLTLDHCYARCTTVITQIHGSDTNRFDCTIFKTCYYRCYVLGKTEDHCWKGTATSVTGDVGDLEFC
notes: also called Mu8.1_38; Mu8.1_59
stoichiometry N [1]: 2 | stoichiometry N [2]: 4 and 6

— publication PMC10437998, “A previously unrecognized superfamily of macro-conotoxins includes an inhibitor of the sensory neuron calcium channel Cav2.3” (PLOS Biology, 2023)
